Laboratory results: publication doi:10.1101/2020.02.18.954917 (bioRxiv, 2020)

Target: the molecule itself
Assay: SEC + AUC

B1: ΔNterm-Them1 (Mus musculus Thioesterase superfamily member 1, thioesterase domains and START domain, residues 43-594) (enzyme, UniProt Q8VHQ9 43-594, looked up)
chain: YRNPTEVQMSQLVLPCHTNHRGELSIGQLLKWIDTTACLSAERHAGCPCVTASMDDIYFDHTISVGQVVNIKAKVNRAFNSSMEVGIQVVSEDLCSEKQWSVCKALATFVAHRELSKVKLKQVIPLTEEEKTEHGVAAERRRMRLVYADTIKDLLTHCVIQDDLDKDCSNMVPAEKTRVESVELVLPPHANHQGNTFGGQIMAWMENVATIAASRLCHAHPTLKAIEMFHFRGPSQVGDRLVLKAIVNNAFKHSMEVGVCVEAYRQEAETQRRHINSAFMTFVVLDKDDQPQKLPWIRPQPGEGERRYREASARKKIRLDRKYLVSCKQAEVALSVPWDPSNQVYLSYYNVSSLKTLMAKDNWVLSVEISEVRLYILEEDFLSFHLEMVVNVDAAQVFQLLSDLRRRPEWDKHYRSVELVQQVDEDDAIYHVISPALSGNTKPQDFVILASRRKPCDNGDPYVIALRSVTLPTHHETPEYQRGETLCSGFCLWREGDQMTKVSYYNQATPGFLNYVTTNVSGLSSEFYNTFKACESFLLDNRNDLAPSLQTL
  stoichiometry N: 3
